This note sets out measurements from the Human Domainome abundance scans (Beltran et al. 2025).

To fix the notation:
B1: F-BAR and double SH3 domains protein 1, residues 467 to 528; numbered along this chain, Q86WN1 (parent)
chain: RALPCPAHVVFRYQAGREDELTITEGEWLEVIEEGDADEWVKARNQHGEVGFVPERYLNFPD

± gives the uncertainty stated by the source.

In the data set the parent is B1. Nature of the data set: abundance fitness (aPCA) (normalised: wild type 0, dead -1); higher = more abundant; growth selection in yeast, the domain comes from the species named. The note with it: Homo sapiens.
For A43L, the abundance fitness was -0.853 ± 0.095.
Consider A43P, for which the abundance fitness is -0.865 ± 0.12.
In the case of A43H, the abundance fitness was -0.629 ± 0.26.
Regarding F11I, the abundance fitness turned out to be 0.12 ± 0.074.
For F11A the value was 0.11 ± 0.048; for F11D, 0.143 ± 0.092; for F11P, -0.774 ± 0.11.
As to G51Y, the abundance fitness was -0.736 ± 0.16.
As to G51N, the abundance fitness is -1.17 ± 0.44.
For G51L, the abundance fitness is -0.273 ± 0.057.
Turning to G51F, the abundance fitness was -0.669 ± 0.12.
For G51V the value was -0.857 ± 0.096.
For G51D, the abundance fitness is -0.706 ± 0.19.
Turning to G51A, the abundance fitness is -0.691 ± 0.1.
For Q14C the value was -0.363 ± 0.081; for Q14T, -0.204 ± 0.069; for Q14N, 0.013 ± 0.1.
Consider Q14D, for which the abundance fitness is 0.014 ± 0.086.
As for Q14P, the abundance fitness was -0.636 ± 0.11.
Consider Q14Y, for which the abundance fitness is -0.241 ± 0.084.
Regarding D36C, the abundance fitness is -0.182 ± 0.11.
For D36L the value was -0.01 ± 0.047; for D36R, -0.016 ± 0.05; for D36H, 0.033 ± 0.15.
Regarding R56M, the abundance fitness was -0.126 ± 0.055.
Regarding R56S, the abundance fitness came to 0.052 ± 0.043.
As to R56V, the abundance fitness was -0.096 ± 0.057.
Consider R56E, for which the abundance fitness was 0.053 ± 0.081.
With R56W, the abundance fitness is -0.263 ± 0.12.
With L21E, the abundance fitness is -0.751 ± 0.18.
With L21C, the abundance fitness is -0.951 ± 0.31.
For L21Y, the abundance fitness is -1 ± 0.23.
For L21P the value was -0.947 ± 0.18.
As for L21R, the abundance fitness was -0.99 ± 0.13.
On to G48K, for which the abundance fitness was -0.328 ± 0.11.
Take G48Y: the abundance fitness was -0.494 ± 0.15.
For G48A the value was -0.39 ± 0.084.
Regarding G48S, the abundance fitness was -0.132 ± 0.064.
In the case of G48H, the abundance fitness was -0.34 ± 0.16.
As to G48D, the abundance fitness was -0.217 ± 0.067.
Regarding G48W, the abundance fitness is -0.435 ± 0.091.
In the case of G48I, the abundance fitness is -0.787 ± 0.22.
G48M: the abundance fitness is -0.296 ± 0.076.
For L58S the value was -0.65 ± 0.059; for L58T, -0.602 ± 0.084; for L58G, -0.73 ± 0.063.
In the case of L58K, the abundance fitness is -1.01 ± 0.29.
For L58F the value was -0.902 ± 0.14; for L29I, -0.004 ± 0.14; for L29T, -0.782 ± 0.15.
L29H: the abundance fitness was -0.6 ± 0.33.
With L29M, the abundance fitness was -0.508 ± 0.13.
L29D: the abundance fitness is -0.642 ± 0.25.
For L29S, the abundance fitness was -0.491 ± 0.096.
With L29A, the abundance fitness is -0.7 ± 0.12.
Consider N59M, for which the abundance fitness is -0.117 ± 0.057.
Turning to N59K, the abundance fitness is -0.005 ± 0.071.
N59Q: the abundance fitness is 0.018 ± 0.053.
For the variant N59R, the abundance fitness was determined as 0.066 ± 0.043.
Turning to N59S, the abundance fitness was -0.036 ± 0.042.
Take N59G: the abundance fitness is -0.096 ± 0.054.
N59T: the abundance fitness was 0.006 ± 0.058.
For N59F the value was -0.091 ± 0.075; for T24A, -0.117 ± 0.055.
Regarding T24M, the abundance fitness was -0.02 ± 0.063.
As for T24L, the abundance fitness is -0.081 ± 0.046.
As to T24I, the abundance fitness was -0.063 ± 0.12.
In the case of T24N, the abundance fitness was -0.212 ± 0.15.
For T24R the value was -0.037 ± 0.059.
Take T24W: the abundance fitness was -0.25 ± 0.076.
Consider R44T, for which the abundance fitness was -0.23 ± 0.081.
For R44V the value was -0.165 ± 0.042.
On to R44K, for which the abundance fitness came out at 0.003 ± 0.09.
In the case of R44M, the abundance fitness is -0.175 ± 0.066.
Take R44C: the abundance fitness is -0.178 ± 0.11.
For R44H the value was -0.74 ± 0.14; for R44G, -0.898 ± 0.088; for V9I, -0.795 ± 0.14.
For V9E the value was -0.411 ± 0.12; for V9P, -0.781 ± 0.18.
Regarding V9W, the abundance fitness is -0.902 ± 0.13.
For V9C the value was -0.32 ± 0.15; for P4E, -0.285 ± 0.12.
On to P4Q, for which the abundance fitness was -0.553 ± 0.13.
P4A: the abundance fitness was -0.496 ± 0.11.
For P4W the value was -0.664 ± 0.11; for P4N, -0.194 ± 0.17; for P4Y, -0.477 ± 0.15.
In the case of K42T, the abundance fitness is -0.076 ± 0.069.
As to K42C, the abundance fitness is -0.25 ± 0.11.
For K42F the value was -0.207 ± 0.079; for K42D, -0.664 ± 0.17; for K42E, -0.496 ± 0.14.
For K42V the value was -0.105 ± 0.05.
In the case of K42G, the abundance fitness was -0.775 ± 0.14.
For Y57R the value was -0.373 ± 0.071; for Y57H, 0.208 ± 0.086.
For the variant R12H, the abundance fitness was -0.188 ± 0.12.
As for R12C, the abundance fitness was -0.056 ± 0.077.
In the case of R12L, the abundance fitness was -0.265 ± 0.046.
As to R12G, the abundance fitness stood at 0.085 ± 0.043.
On to F60K, for which the abundance fitness is -0.533 ± 0.1.
Regarding F60E, the abundance fitness was -0.561 ± 0.1.
Consider F60A, for which the abundance fitness is -0.535 ± 0.086.
For E39F the value was 0.042 ± 0.079; for E39G, 0.066 ± 0.064.
As for E39Y, the abundance fitness was -0.226 ± 0.097.
E39R: the abundance fitness turned out to be 0.017 ± 0.051.
Take A37V: the abundance fitness amounted to 0.052 ± 0.052.
Turning to A37D, the abundance fitness is -0.048 ± 0.13.
Take A37I: the abundance fitness was -0.026 ± 0.099.
For A37F the value was -0.023 ± 0.12; for A37M, 0.018 ± 0.056.
With A37K, the abundance fitness amounted to 0.14 ± 0.06.
For the variant A37W, the abundance fitness was -0.044 ± 0.064.
Regarding Y13C, the abundance fitness was -0.486 ± 0.11.
Take Y13H: the abundance fitness was -0.109 ± 0.11.
Take Y13M: the abundance fitness is -0.594 ± 0.14.
Take E49P: the abundance fitness was -1.05 ± 0.19.
On to E49T, for which the abundance fitness is -0.075 ± 0.07.
Turning to G35A, the abundance fitness is -0.045 ± 0.052.
Turning to G35M, the abundance fitness was -0.202 ± 0.08.
As to G35D, the abundance fitness was -0.211 ± 0.094.
As to G35R, the abundance fitness was -0.072 ± 0.056.
Turning to G35W, the abundance fitness was -0.332 ± 0.1.
Regarding D19M, the abundance fitness is -0.12 ± 0.061.
Regarding D19V, the abundance fitness came out at 0.103 ± 0.056.
In the case of D19S, the abundance fitness was 0.044 ± 0.039.
For D19A the value was 0.092 ± 0.061; for D19N, -0.028 ± 0.084.
Consider D19K, for which the abundance fitness was -0.05 ± 0.063.
For the variant D19I, the abundance fitness was -0.095 ± 0.073.
As for D19W, the abundance fitness was -0.426 ± 0.084.
With D19C, the abundance fitness was determined as 0.087 ± 0.099.
For P6A, the abundance fitness is -0.094 ± 0.062.
P6Y: the abundance fitness is -0.258 ± 0.12.
P6R: the abundance fitness was -0.077 ± 0.046.
As to W28M, the abundance fitness was -0.024 ± 0.057.
For W28I the value was 0.026 ± 0.086.
For W28H the value was 0.01 ± 0.1; for W28F, 0.134 ± 0.086; for W28G, -0.217 ± 0.058.
As to L3W, the abundance fitness was -0.53 ± 0.065.
Consider L3A, for which the abundance fitness was -0.693 ± 0.24.
L3E: the abundance fitness was -0.503 ± 0.12.
In the case of L3Y, the abundance fitness worked out at 0.124 ± 0.075.
For L3C the value was -0.121 ± 0.063; for L3P, -0.242 ± 0.093.
Take L3V: the abundance fitness was -0.439 ± 0.062.
In the case of P54C, the abundance fitness is -0.001 ± 0.071.
Consider P54N, for which the abundance fitness amounted to 0.198 ± 0.13.
For P54Y the value was -0.14 ± 0.087; for P54F, -0.287 ± 0.075.
Regarding P54V, the abundance fitness was -0.638 ± 0.09.
For P54Q the value was -0.117 ± 0.063.
For the variant P54W, the abundance fitness was -0.117 ± 0.063.
Take P54I: the abundance fitness was -0.426 ± 0.15.
For the variant I32M, the abundance fitness was -0.162 ± 0.055.
Turning to I32C, the abundance fitness was -0.557 ± 0.15.
For I32W the value was -0.276 ± 0.07; for I32K, -0.948 ± 0.24.
For I32D the value was -0.73 ± 0.15; for I32A, -0.84 ± 0.1.
Consider V50T, for which the abundance fitness is -0.11 ± 0.078.
With V50H, the abundance fitness is -0.554 ± 0.12.
Consider V50F, for which the abundance fitness is -0.29 ± 0.09.
In the case of V50A, the abundance fitness was -0.211 ± 0.065.
